Assay results as given in US12692303 (QYUNS THERAPEUTICS, dated 2026).
Where a chain is given by its changes, count along the chain named. One block for each binder: values may come before it.

Legend:
[1] = molecular target: T1, Human interleukin 23 (hIL-23) (human, UniProt Q9NPF7 20-189; P29460 23-328); experiment: SPR, Biacore T200, antibody captured on Protein A chip, IL-23 in flow, 25 °C, 1:1 model
T1 construct: Heterodimer of p19 and p40; bought (Shanghai Novoprotein); also called human IL-23
T1 sequence 1: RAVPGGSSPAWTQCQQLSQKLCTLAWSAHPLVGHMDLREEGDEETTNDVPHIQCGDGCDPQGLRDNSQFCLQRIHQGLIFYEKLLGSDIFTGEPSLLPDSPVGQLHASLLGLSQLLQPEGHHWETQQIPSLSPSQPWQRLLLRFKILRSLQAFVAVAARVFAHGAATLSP
T1 sequence 2: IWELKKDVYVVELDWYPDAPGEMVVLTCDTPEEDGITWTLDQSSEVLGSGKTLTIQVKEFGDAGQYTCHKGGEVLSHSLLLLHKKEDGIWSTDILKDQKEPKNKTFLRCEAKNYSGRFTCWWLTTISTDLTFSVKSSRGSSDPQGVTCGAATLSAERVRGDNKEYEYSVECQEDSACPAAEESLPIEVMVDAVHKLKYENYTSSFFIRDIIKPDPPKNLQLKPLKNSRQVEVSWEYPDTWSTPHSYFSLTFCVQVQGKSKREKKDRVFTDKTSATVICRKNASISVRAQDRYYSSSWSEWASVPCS
Experimental: Commercialized Protein A chip was used to immobilize an appropriate amount of antibody by capture method, the Rmax was about 50 RU and the capture flow rate was 10 μl/min. The antigen was diluted by gradient, and the flow rate of the instrument was switched to 30 μl/min. The diluted antigen flowed through the reference channel and the channel of immobilized antibody in sequence from low to high concentration, and flowed through the buffer as negative control. The chip was regenerated with glycine at pH 1.5 after each binding and dissociation. Fitting was performed with the 1:1 binding model in the Kinetics option using the build-in software in the instrument, and the association rate constant k_a, dissociation rate constant […] and equilibrium dissociation constant K_D of the antibody were calculated.

IL-23 mutant L140P [2] = molecular target: T2, IL-23 mutant L140P (human, UniProt Q9NPF7 20-189; P29460 23-328); experiment: binding ELISA, antibody coated at 1 µg/ml, IL-23 mutant supernatant titrated; N.D: the binding is weak, and the EC50 value is not accurate
T2 construct: 293F cell supernatant
T2 chain 1: T1 sequence 1 with L140P
T2 chain 2: T1 sequence 2
Experimental: (§1) Mutation primers were designed through PCR method. The p19 mutant plasmid was co-transfected with p40 plasmid into 293F cells to prepare a cell supernatant containing the IL-23 mutant.
(§2) After blocking, a series of cell supernatant dilutions of IL-23 mutant diluted to a concentration ranging from 0 to 0.5 μg/ml for incubation. Then, Biotin labeled anti-His antibody and SA-HRP were added respectively for incubation, finally the substrate was added for color development, and the termination solution was added to terminate the color reaction. After termination, the ELISA plate was placed in a microplate reader to read the absorption value at 450 nm (the absorption values at 650 nm was taken as reference), and the dose effect curve was plotted and the $EC50$ value was calculated.

IL-23 mutant F144S [3] = molecular target: T3, IL-23 mutant F144S (human, UniProt Q9NPF7 20-189; P29460 23-328); experiment: as above
T3 construct: 293F cell supernatant
T3 chain 1: T1 sequence 1 with F144S
T3 chain 2: T1 sequence 2
Experimental: as §1, §2

[4] = molecular target: T1, Human interleukin 23 (hIL-23); experiment: cell-based or functional assay
Natural IL-23 = molecular target: T4, Natural IL-23 (human, UniProt Q9NPF7 20-189; P29460 23-328); experiment: binding ELISA, antibody coated at 1 µg/ml, IL-23 titrated, anti-His detection
T4 construct: It was detected with an anti-His antibody, so it carries a His tag
T4 sequence 1: T1 sequence 1
T4 sequence 2: T1 sequence 2

IL-23-p40 = molecular target: T5, IL-23-p40 (human, UniProt P29460 23-328); experiment: Binding ELISA: IL-23-p40 coated at 2 ug/ml, goat anti-human IgG secondary antibody, OD450 (reference 650 nm)
T5 construct: also called p40 subunit of IL-23; IL-12/IL-23p40
T5 sequence: T1 sequence 2
Experimental: IL-23-p40 was diluted to 2 μg/ml, added to the ELISA plate, and coated overnight at 4° C. After blocking, a series of antibody dilutions diluted to a concentration ranging from 0 to 5 μg/ml and Goat-anti-human IgG secondary antibody were added respectively for incubation, finally substrate was added for color development, and the termination solution was added to terminate the color reaction. After termination, the ELISA plate was placed in a microplate reader to read the absorption value at 450 nm (the absorption value at 650 nm was taken as reference), and the dose effect curve was plotted to analyze the binding specificity of the antibody.

IL-23 mutant R143A = molecular target: T6, IL-23 mutant R143A (human, UniProt Q9NPF7 20-189; P29460 23-328); experiment: binding ELISA, antibody coated at 1 µg/ml, IL-23 mutant supernatant titrated, anti-His detection
T6 construct: 293F cell supernatant
T6 chain 1: T1 sequence 1 with R143A
T6 chain 2: T1 sequence 2
Experimental: as §1, §2

IL-23 mutant W137A = molecular target: T7, IL-23 mutant W137A (human, UniProt Q9NPF7 20-189; P29460 23-328); experiment: as above
T7 construct: p19 mutant plasmid co-transfected with p40 plasmid into 293F cells; used as cell supernatant
T7 chain 1: T1 sequence 1 with W137A
T7 chain 2: T1 sequence 2
Experimental: as §1, §2

IL-23 mutant W137D = molecular target: T8, IL-23 mutant W137D (human, UniProt Q9NPF7 20-189; P29460 23-328); experiment: as above
T8 construct: 293F cell supernatant
T8 chain 1: T1 sequence 1 with W137D
T8 chain 2: T1 sequence 2
Experimental: as §1, §2

IL-23 mutant L140P [5] = molecular target: T2, IL-23 mutant L140P; experiment: as above
Experimental: as §1, §2

IL-23 mutant F144S [6] = molecular target: T3, IL-23 mutant F144S; experiment: as above
Experimental: as §1, §2

Kd [1]: 101 pM | koff [1]: 3.5e-05 s⁻¹ | kon [1]: 366000 M⁻¹ s⁻¹ | binding result (IL-23 mutant L140P [2]): binds | binding result (IL-23 mutant F144S [3]): binds | IC50, inhibition of phosphorylation of STAT3 in HEK Blue IL-23 cells induced by IL-23 [4]: 0.00321 µg/mL | IC50, inhibition of release of IFN-γ from human NK cells induced by IL-23 [4]: 0.0104 µg/mL | IC50, inhibition of release of IL-17A from mouse spleen cells induced by IL-23 [4]: 0.0117 µg/mL | EC50 (Natural IL-23): 0.0017 µg/mL | binding result (IL-23-p40): no binding | EC50 (IL-23 mutant R143A): 0.0034 µg/mL | EC50 (IL-23 mutant W137A): 0.0501 µg/mL | EC50 (IL-23 mutant W137D): 0.363 µg/mL
B1: QX004N (HZD90-32) (antibody, human IgG1, kappa, V domains shown)
VH: EVQLVESGGGLVQPGGSLRLSCAASGFSLSNHEMSWVRQAPGKGLEWIGIITTSDTTYYATWAKGRFTISRDNSKNTLYLQMNSLRAEDTAVYYCARVDIVLLSVTSRIWGQGTLVTVSS
VL: DVVMTQSPSSLSASVGDRVTITCQASQSVSTYLSWYQQKPGKAPKLLIYGASNLESGVPSRFSGSGSGTDFTLTISSLQPEDFATYYCQSGYVFAGLTFGGGTKVEIKR
notes: Expressed in ExpiCHO-S cells, purified on Protein A; also called humanized clone 90#; 90VH-Hu18/90VK-Hu9

EC50 (IL-23 mutant R143A): 0.307 µg/mL | EC50 (IL-23 mutant W137A): 0.0023 µg/mL | EC50 (IL-23 mutant L140P [5]): 0.0544 µg/mL | EC50 (IL-23 mutant W137D): 0.0052 µg/mL | EC50 (IL-23 mutant F144S [6]): 0.0101 µg/mL
B2: Risankizumab (antibody, V domains shown)
VH: QVQLVQSGAEVKKPGSSVKVSCKASGYTFTDQTIHWMRQAPGQGLEWIGYIYPRDDSPKYNENFKGKVTITADKSTSTAYMELSSLRSEDTAVYYCAIPDRSGYAWFIYWGQGTLVTVSS
VL: DIQMTQSPSSLSASVGDRVTITCKASRDVAIAVAWYQQKPGKVPKLLIYWASTRHTGVPSRFSGSGSRTDFTLTISSLQPEDVADYFCHQYSSYPFTFGSGTKLEIKR
